In PMC4494898 one finds Kd data, which are given here for one molecule.

The series addresses Egr-1 (Zif268) zinc-finger protein (UniProt P18146 335-423). The experiment in a line: fluorescence anisotropy. On the technique in general: Fluorescence polarisation rises when a labelled molecule tumbles more slowly, as on binding a larger partner.

B1: 12-bp competitor duplex (dsDNA)
DNA 1: TATGTAGGCGGT
DNA 2: ACCGCCTACATA
A word on the Kd: it is the constant that tells how readily two partners part at equilibrium. For B1, the equilibrium dissociation constant (Kd) was 29 nM.
